Experimental data: paper PMC4947174 (Nature Communications, 2016)

B1: Pol I subunit AC40 (natural protein, S. cerevisiae (endogenous in yeast), UniProt P07703 1-335, looked up)
chain: MSNIVGIEYNRVTNTTSTDFPGFSKDAENEWNVEKFKKDFEVNISSLDAREANFDLINIDTSIANAFRRIMISEVPSVAAEYVYFFNNTSVIQDEVLAHRIGLVPLKVDPDMLTWVDSNLPDDEKFTDENTIVLSLNVKCTRNPDAPKGSTDPKELYNNAHVYARDLKFEPQGRQSTTFADCPVVPADPDILLAKLRPGQEISLKAHCILGIGGDHAKFSPVSTASYRLLPQINILQPIKGESARRFQKCFPPGVIGIDEGSDEAYVKDARKDTVSREVLRYEEFADKVKLGRVRNHFIFNVESAGAMTPEEIFFKSVRILKNKAEYLKNCPITQ
notes: AC40, subunit shared by RNA polymerases I and III, S. cerevisiae; source: endogenous, S. cerevisiae; part of Pol I purified with Rrn3-ProtA (y2183)
B2: Pol I subunit AC19 (natural protein, S. cerevisiae (endogenous in yeast), UniProt P28000 1-142, looked up)
chain: MTEDIEQKKTATEVTPQEPKHIQEEEEQDVDMTGDEEQEEEPDREKIKLLTQATSEDGTSASFQIVEEDHTLGNALRYVIMKNPDVEFCGYSIPHPSENLLNIRIQTYGETTAVDALQKGLKDLMDLCDVVESKFTEKIKSM
notes: AC19, subunit shared by RNA polymerases I and III, S. cerevisiae; source: endogenous, S. cerevisiae; part of Pol I purified with Rrn3-ProtA (y2183)
B3: Pol I subunit A14 (natural protein, S. cerevisiae (endogenous in yeast), UniProt P50106 1-137, looked up)
chain: MMKGSRRTGNNTATTLNTPVVIHATQLPQHVSTDEVLQFLESFIDEKENIIDSTTMNTISGNAADADAAAVANTSLNIDTNLSSSISQLKRIQRDFKGLPPAQDFSAAPIQVSTTEKKETSIGVSATGGKKTTFADE
notes: A14, subunit of RNA polymerase I, S. cerevisiae; source: endogenous, S. cerevisiae; part of Pol I purified with Rrn3-ProtA (y2183)
B4: Rrn3 (Pol I-specific initiation factor), overexpressed in yeast as Rrn3-TEV-ProtA-His7 (natural protein, S. cerevisiae)
chain: MMAFENTSKRPPQDFVAPIDQKKRKVQFSDSTGLVTLQPEEIKDEVFSAAMYSRFVKSALDDLDKNDSTQIGIIANQVALPSKNPERINDKNLNILLDILSSNINRIESSRGTFLIQSIINFEKWWELPPHTLSKYIYFIKILCSSIPKWWQDVSMILVSCFILPIKQTVCHHDMLKYFLRMIPSSMGFIDTYLAKFFPNKNDTRRKLVNYTSNLLKLRGYCSELGFQIWSLLIEKIISIDVELQNELDELDDDVDDDDLEEVDLEDDDDLDDDSGDDDDENCGNSNEELRSGAADGSQSDSEDMDIIEGMDGTEEYNVELTQGIKELSTKLDSILTLVSTHVEEQVTPESLESGEGVGVFNTLTTLFKTHVLPTYYTRSIQYIMFHVSQQQLELMDSFLVTLIDISFAVNEAAEKKIKSLQYLGSYIARAKKLSRTQIIFVASYLTSWLNRYVIEREEEVDQRGGMERFKHFYAAFQALCYIFCFRHNIFRDTDGNWECELDKFFQRMVISKFNPLKFCNENVMLMFARIAQQESVAYCFSIIENNNNERLRGIIGKADSDKKENSAQANTTSSSWSLATRQQFIDLQSYFPYDPLFLKNYKILMKEYYIEWSEASGEYESDGSDD
notes: Rrn3, RNA polymerase I-specific transcription initiation factor, S. cerevisiae; Released from the beads by TEV protease; source: S. cerevisiae strain y2183 with plasmid 729 (Ycplac111-GAL-Rrn3-TEV-ProtA-HIS), galactose-induced; purified in complex with Pol I (IgG beads, TEV elution)

What was measured:
[1] = molecular target: Rrn3-free RNA polymerase I (WT Pol I) purified through A135-TEV-ProtA (S. cerevisiae (endogenous in yeast) | S. cerevisiae) (UniProt P10964)
Sequence of Rrn3-free RNA polymerase I (WT Pol I) purified through A135-TEV-ProtA (S. cerevisiae (endogenous in yeast) | S. cerevisiae) (P10964 whole entry, looked up): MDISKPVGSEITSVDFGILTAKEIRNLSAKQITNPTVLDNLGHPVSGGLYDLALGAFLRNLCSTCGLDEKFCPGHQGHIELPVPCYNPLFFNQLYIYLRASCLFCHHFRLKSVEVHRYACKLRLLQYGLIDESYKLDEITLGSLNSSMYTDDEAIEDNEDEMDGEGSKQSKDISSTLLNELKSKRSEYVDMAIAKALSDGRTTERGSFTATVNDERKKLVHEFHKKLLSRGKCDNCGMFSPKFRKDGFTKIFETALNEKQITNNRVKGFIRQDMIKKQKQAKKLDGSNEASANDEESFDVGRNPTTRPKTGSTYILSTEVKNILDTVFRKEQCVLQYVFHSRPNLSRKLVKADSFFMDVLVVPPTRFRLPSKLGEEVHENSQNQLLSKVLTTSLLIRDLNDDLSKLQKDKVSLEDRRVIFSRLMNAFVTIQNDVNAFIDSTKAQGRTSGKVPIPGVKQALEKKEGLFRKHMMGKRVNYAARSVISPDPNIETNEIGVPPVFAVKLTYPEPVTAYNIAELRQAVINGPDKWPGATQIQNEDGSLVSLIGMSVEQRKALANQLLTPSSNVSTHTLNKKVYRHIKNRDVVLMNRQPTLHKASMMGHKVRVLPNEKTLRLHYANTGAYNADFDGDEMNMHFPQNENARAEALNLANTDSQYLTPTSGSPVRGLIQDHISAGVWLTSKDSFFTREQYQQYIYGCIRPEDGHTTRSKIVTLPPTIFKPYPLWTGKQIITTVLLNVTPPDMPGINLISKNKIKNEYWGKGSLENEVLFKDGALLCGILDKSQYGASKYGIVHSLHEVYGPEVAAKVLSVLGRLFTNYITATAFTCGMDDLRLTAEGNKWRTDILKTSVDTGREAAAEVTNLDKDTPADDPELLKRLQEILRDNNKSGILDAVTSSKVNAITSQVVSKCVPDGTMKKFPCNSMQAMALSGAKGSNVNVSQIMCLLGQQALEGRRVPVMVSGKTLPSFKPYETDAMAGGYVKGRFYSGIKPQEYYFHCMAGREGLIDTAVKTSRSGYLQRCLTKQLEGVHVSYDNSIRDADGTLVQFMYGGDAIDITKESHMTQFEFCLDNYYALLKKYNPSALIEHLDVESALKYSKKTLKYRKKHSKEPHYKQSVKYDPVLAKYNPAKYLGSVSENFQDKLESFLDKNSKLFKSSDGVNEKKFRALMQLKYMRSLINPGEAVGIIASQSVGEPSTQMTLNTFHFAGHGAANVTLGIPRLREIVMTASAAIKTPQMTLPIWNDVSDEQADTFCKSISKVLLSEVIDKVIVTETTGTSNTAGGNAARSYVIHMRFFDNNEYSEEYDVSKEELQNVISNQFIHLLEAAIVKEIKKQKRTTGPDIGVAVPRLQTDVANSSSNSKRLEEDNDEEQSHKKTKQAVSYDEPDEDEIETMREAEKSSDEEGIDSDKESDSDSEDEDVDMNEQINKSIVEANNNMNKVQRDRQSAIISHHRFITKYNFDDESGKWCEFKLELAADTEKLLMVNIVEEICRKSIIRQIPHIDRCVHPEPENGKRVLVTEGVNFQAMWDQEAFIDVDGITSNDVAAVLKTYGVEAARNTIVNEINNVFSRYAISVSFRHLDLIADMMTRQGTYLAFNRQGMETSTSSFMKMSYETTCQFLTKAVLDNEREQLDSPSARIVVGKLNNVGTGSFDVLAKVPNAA

[2] = molecular target: B4; assay: cryo-EM structure; Pol I-Rrn3 complex purified from yeast, cross-linked with 0.5% glutaraldehyde for 2 min; 20 mM Hepes pH 7.8, 100 mM ammonium acetate, 2 mM MgCl2; 32,438 particles of intact complex; 7.5 Å; crystal structures of Pol I and Rrn3 docked into the map; settings: both partners purified
[3] = molecular target: T1, Pol I subunit A190 (largest subunit) (S. cerevisiae (endogenous in yeast), UniProt P10964 1-1664); assay: as above; settings: both partners purified
T1 construct: A190, largest subunit of RNA polymerase I, S. cerevisiae; source: endogenous, S. cerevisiae; part of Pol I purified with Rrn3-ProtA (y2183) or through A135-ProtA (y2423)
T1 sequence (P10964 whole entry): as the sequence (P10964 whole entry, looked up) above

Molecule | binding result [2] | other results
Recombinant His6-Rrn3 (from UniProt P36070 1-627) (natural protein) | – | promoter-dependent in vitro transcription: purified Pol I-Rrn3 complex against the same concentration of Rrn3-free Pol I with recombinant His6-Rrn3 (70 nM) and CF (20 nM) [1]: < 10 fold
B1 | binds | –
B2 | binds | –
B3 | binds | –
B4 | – | binding result [3]: binds
